Results from article PMC5931518, “Architecture of the U6 snRNP reveals specific recognition of 3′-end processed U6 snRNA”.

T1: wild-type Prp24 for electrophoretic mobility shift assays (TEV-labile N-terminal polyhistidine tag removed) (S. cerevisiae, UniProt P49960 1-444)
T1 chain: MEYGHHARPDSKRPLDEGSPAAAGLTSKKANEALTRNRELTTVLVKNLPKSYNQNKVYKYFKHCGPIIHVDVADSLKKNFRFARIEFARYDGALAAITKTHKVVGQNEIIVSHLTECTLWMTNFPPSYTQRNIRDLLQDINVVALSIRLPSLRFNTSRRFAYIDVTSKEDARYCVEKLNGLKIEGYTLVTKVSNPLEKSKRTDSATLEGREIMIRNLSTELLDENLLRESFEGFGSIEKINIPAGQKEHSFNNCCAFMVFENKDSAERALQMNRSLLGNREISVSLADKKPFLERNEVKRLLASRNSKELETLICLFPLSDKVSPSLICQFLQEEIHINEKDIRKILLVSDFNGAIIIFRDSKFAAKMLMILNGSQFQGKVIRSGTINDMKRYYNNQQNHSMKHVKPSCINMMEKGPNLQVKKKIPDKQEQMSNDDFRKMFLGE

T2: Prp24-8Asub (eight RRM4 residues at the Lsm2 interface substituted with alanine) (S. cerevisiae, UniProt P49960 1-444, D361A | S362A | K363A | K367A | L369A | M370A | I371A | N373A)
T2 sequence: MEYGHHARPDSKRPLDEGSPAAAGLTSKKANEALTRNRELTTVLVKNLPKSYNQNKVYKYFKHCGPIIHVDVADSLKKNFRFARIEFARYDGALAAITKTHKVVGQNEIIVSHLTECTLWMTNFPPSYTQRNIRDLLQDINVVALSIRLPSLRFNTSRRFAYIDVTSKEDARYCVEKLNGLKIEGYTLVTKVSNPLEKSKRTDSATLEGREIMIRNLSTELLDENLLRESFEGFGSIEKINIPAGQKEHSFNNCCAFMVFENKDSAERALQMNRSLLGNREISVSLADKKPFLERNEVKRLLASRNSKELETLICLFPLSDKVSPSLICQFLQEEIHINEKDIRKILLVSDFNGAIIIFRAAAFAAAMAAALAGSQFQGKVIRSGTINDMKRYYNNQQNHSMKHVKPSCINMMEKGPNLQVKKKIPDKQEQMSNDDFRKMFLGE


Experiments:
[1] = molecular target: Prp24 (EMSA, wild type);Lsm2-8 mostly wild type (Saccharomyces cerevisiae;Saccharomyces cerevisiae) (UniProt P38203+P57743+P40070+P40089+Q06406+P53905+P47093); test: EMSA; conditions: Lsm2-8 titrated onto U6 pre-bound with 20 nM Prp24; FP: 50 mM KCl or as listed 100 mM KCl in both 2x buffers, HEPES (10 mM acid + 10 mM Na salt), 10% glycerol, 1 mM TCEP, tRNA, heparin, BSA, 0.3 nM FAM-RNA …
Sequence of Prp24 (EMSA, wild type);Lsm2-8 mostly wild type (Saccharomyces cerevisiae;Saccharomyces cerevisiae) (P40070 whole entry, looked up, one chain of several): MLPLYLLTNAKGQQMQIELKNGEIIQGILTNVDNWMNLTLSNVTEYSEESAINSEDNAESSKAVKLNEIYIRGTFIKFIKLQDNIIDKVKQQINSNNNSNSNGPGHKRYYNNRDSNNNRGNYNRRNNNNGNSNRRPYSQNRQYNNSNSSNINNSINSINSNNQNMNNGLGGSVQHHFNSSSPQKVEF

[2] = molecular target: Prp24-8Asub;Lsm2-8 mostly wild type (Saccharomyces cerevisiae;Saccharomyces cerevisiae) (UniProt P38203+P57743+P40070+P40089+Q06406+P53905+P47093); test: EMSA; conditions: Lsm2-8 titrated onto U6 pre-bound with 20 nM Prp24-8Asub; FP: 50 mM KCl or as listed 100 mM KCl in both 2x buffers, HEPES (10 mM acid + 10 mM Na salt), 10% glycerol, 1 mM TCEP, tRNA, heparin, BSA, 0.3 nM FAM-RNA …
Sequence of Prp24-8Asub;Lsm2-8 mostly wild type (Saccharomyces cerevisiae;Saccharomyces cerevisiae) (P40070 whole entry, looked up, one chain of several): as above

[3] = molecular target: Prp24-8Asub (eight RRM4 residues at the Lsm2 interface substituted with alanine) (S. cerevisiae) (UniProt P49960)
[4] = molecular target: T1, wild-type Prp24 for electrophoretic …; test: EMSA; Prp24 pre-bound to U6 RNA (U6/Prp24 complex)
[5] = molecular target: T2, Prp24-8Asub (eight RRM4 residues at the …); test: EMSA; Prp24-8Asub pre-bound to U6 RNA (U6/Prp24 complex)
[6] = molecular target: Prp24-8Asub (eight RRM4 residues at the Lsm2 interface substituted with alanine) (S. cerevisiae) (UniProt P49960); test: native gel or EMSA; different amounts of Lsm2–8 added to 0.5 nM Cy3-U6 1–112 pre-incubated 20 min with 20 nM Prp24; 100 mM KCl, bis-tris pH ~6.5, room temperature; 6% native polyacrylamide gel at 4 °C; Hill fit, average of three technical replicates

Molecule	Kd [1]	Kd [2]	rate of in vitro annealing of U4 and U6 with Prp24-8Asub in place of wild-type Prp24 (50 nM Prp24/50 nM Lsm2–8) [3]	Kd [4]	Kd [5]	fold reduction of affinity against wild-type Prp24 (U6•Prp24 complex) [6]
Cy3-U6 1-112	2.8 nM	5.7 nM				
Lsm2–8 heteroheptameric ring, "mostly wild type" construct (complex) chain 1: MGSMLFFSFFKTLVDQEVVVELKNDIEIKGTLQSVDQFLNLKLDNISCTDEKKYPHLGSVRNIFIRGSTVRYVYLNKNMVDTNLLQDATRREVMTERK chain 2: MGSMETPLDLLKLNLDERVYIKLRGARTLVGTLQAFDSHCNIVLSDAVETIYQLNNEELSESERRCEMVFIRGDTVTLISTPSEDDDGAVEI chain 3: MGSMLPLYLLTNAKGQQMQIELKNGEIIQGILTNVDNWMNLTLSNVTEYSEESAINSEDNAESSKAVKLNEIYIRGTFIKFIKLQDNIIDKVKQQI chain 4: MGSMSLPEILPLEVIDKTINQKVLIVLQSNREFEGTLVGFDDFVNVILEDAVEWLIDPEDESRNEKVMQHHGRMLLSGNNIAILVPGGKKTPTEAL chain 5: GSMSGKASTEGSVTTEFLSDIIGKTVNVKLASGLLYSGRLESIDGFMNVALSSATEHYESNNNKLLNKFNSDVFLRGTQVMYISEQKI chain 6: MGSMHQQHSKSENKPQQQRKKFEGPKREAILDLAKYKDSKIRVKLMGGKLVIGVLKGYDQLMNLVLDDTVEYMSNPDDENNTELISKNARKLGLTVIRGTILVSLSSAEGSDVLYMQK chain 7: GSMSATLKDYLNKRVVIIKVDGECLIASLNGFDKNTNLFITNVFNRISKEFICKAQLLRGSEIALVGLIDAENDDSLAPIDEKKVPMLKDTKNKIENEHVIWEKVYESKTK			2 fold slower	2.8 nM	5.7 nM	2 fold
